From patent US20250002610A1 (Genmab, published 2025)

B1: BisG1-FAPα-FERL/DR4-FERR (bispecific antibody, human IgG1, kappa, lambda)
heavy 1: EVQLLESGGGLVQPGGSPRLSCEASGFTFSSYALSWVRQAPGKGLEWVSAISGSGGGRYYADSVKGRFTISRDNSKNTLFLQMNSLRAEDTAVYYCAKEGYSSSGTYWDHWGQGTLVTVSSASTKGPSVFPLAPSSKSTSGGTAALGCLVKDYFPEPVTVSWNSGALTSGVHTFPAVLQSSGLYSLSSVVTVPSSSLGTQTYICNVNHKPSNTKVDKRVEPKSCDKTHTCPPCPAPEFERGPSVFLFPPKPKDTLMISRTPEVTCVVVDVSHEDPEVKFNWYVDGVEVHNAKTKPREEQYNSTYRVVSVLTVLHQDWLNGKEYKCKVSNKALPAPIEKTISKAKGQPREPQVYTLPPSREEMTKNQVSLTCLVKGFYPSDIAVEWESNGQPENNYKTTPPVLDSDGSFLLYSKLTVDKSRWQQGNVFSCSVMHEALHNHYTQKSLSLSPG
light 1: AIQMTQSPSSVSASVGDRVTITCRASQGVSSWLAWYQQKPGRAPKLLIYVASTLQSGVPSRFSGSGSGTDFTLTINSLQPEDFATYYCQQANSFPPTFGQGTRLEMKRTVAAPSVFIFPPSDEQLKSGTASVVCLLNNFYPREAKVQWKVDNALQSGNSQESVTEQDSKDSTYSLSSTLTLSKADYEKHKVYACEVTHQGLSSPVTKSFNRGEC
heavy 2: QVQLQESGPGLVKPSGTLSLTCAVSGGSISSYSWWSWIRQPPGKGLEWIGELYHSGSTNYNPSLKSRVTISVDKSKNQFSLKLRSVTAADTAVYYCVRGVATIDYWGQGTLVTVSSASTKGPSVFPLAPSSKSTSGGTAALGCLVKDYFPEPVTVSWNSGALTSGVHTFPAVLQSSGLYSLSSVVTVPSSSLGTQTYICNVNHKPSNTKVDKRVEPKSCDKTHTCPPCPAPEFERGPSVFLFPPKPKDTLMISRTPEVTCVVVDVSHEDPEVKFNWYVDGVEVHNAKTKPREEQYNSTYRVVSVLTVLHQDWLNGKEYKCKVSNKALPAPIEKTISKAKGQPREPQVYTLPPSREEMTKNQVSLTCLVKGFYPSDIAVEWESNGQPENNYKTTPPVLDSDGSFFLYSRLTVDKSRWQQGNVFSCSVMHEALHNHYTQKSLSLSPG
light 2: QSALTQPPSASGSPGQSVTISCTGTSSDVGGYNFVSWYQQDPGKAPKLLIYEVTKRPSGVPDRFSGSKSGNTASLTVSGLQAEDEADYYCSSYAGSNNVMFGGGTKLTVLGQPKAAPSVTLFPPSSEELQANKATLVCLISDFYPGAVTVAWKADSSPVKAGVETTTPSKQSNNKYAASSYLSLTPEQWKSHRSYSCQVTHEGSTVEKTVAPTECS
notes: Human IgG1 bispecific made by controlled Fab-arm exchange of IgG1-FAPα-FERL and IgG1-DR4-FERR; monovalent for FAPα and for DR4; also called GEN1057
B2: BisG1-b12-FERL/DR4-FERR (bispecific antibody, human IgG1, kappa, lambda)
heavy 1: QVQLVQSGAEVKKPGASVKVSCQASGYRFSNFVIHWVRQAPGQRFEWMGWINPYNGNKEFSAKFQDRVTFTADTSANTAYMELRSLRSADTAVYYCARVGPYSWDDSPQDNYYMDVWGKGTTVIVSSASTKGPSVFPLAPSSKSTSGGTAALGCLVKDYFPEPVTVSWNSGALTSGVHTFPAVLQSSGLYSLSSVVTVPSSSLGTQTYICNVNHKPSNTKVDKRVEPKSCDKTHTCPPCPAPEFERGPSVFLFPPKPKDTLMISRTPEVTCVVVDVSHEDPEVKFNWYVDGVEVHNAKTKPREEQYNSTYRVVSVLTVLHQDWLNGKEYKCKVSNKALPAPIEKTISKAKGQPREPQVYTLPPSREEMTKNQVSLTCLVKGFYPSDIAVEWESNGQPENNYKTTPPVLDSDGSFLLYSKLTVDKSRWQQGNVFSCSVMHEALHNHYTQKSLSLSPG
light 1: EIVLTQSPGTLSLSPGERATFSCRSSHSIRSRRVAWYQHKPGQAPRLVIHGVSNRASGISDRFSGSGSGTDFTLTITRVEPEDFALYYCQVYGASSYTFGQGTKLERKRTVAAPSVFIFPPSDEQLKSGTASVVCLLNNFYPREAKVQWKVDNALQSGNSQESVTEQDSKDSTYSLSSTLTLSKADYEKHKVYACEVTHQGLSSPVTKSFNRGEC
heavy 2: B1 heavy 2
light 2: B1 light 2
notes: Fab-arm exchange of IgG1-b12-FERL and IgG1-DR4-FERR; also called bsIgG1-ctrl-FERLxDR4-FERR

Legend:
[1] = molecular target: T1, human FAPα (Fibroblast activation protein alpha), cell surface expressed (human, UniProt Q12884 1-760); experiment: flow cytometry, human lung fibroblasts, n = 2
T1 construct: Endogenous on human lung fibroblasts and CAFs
T1 sequence: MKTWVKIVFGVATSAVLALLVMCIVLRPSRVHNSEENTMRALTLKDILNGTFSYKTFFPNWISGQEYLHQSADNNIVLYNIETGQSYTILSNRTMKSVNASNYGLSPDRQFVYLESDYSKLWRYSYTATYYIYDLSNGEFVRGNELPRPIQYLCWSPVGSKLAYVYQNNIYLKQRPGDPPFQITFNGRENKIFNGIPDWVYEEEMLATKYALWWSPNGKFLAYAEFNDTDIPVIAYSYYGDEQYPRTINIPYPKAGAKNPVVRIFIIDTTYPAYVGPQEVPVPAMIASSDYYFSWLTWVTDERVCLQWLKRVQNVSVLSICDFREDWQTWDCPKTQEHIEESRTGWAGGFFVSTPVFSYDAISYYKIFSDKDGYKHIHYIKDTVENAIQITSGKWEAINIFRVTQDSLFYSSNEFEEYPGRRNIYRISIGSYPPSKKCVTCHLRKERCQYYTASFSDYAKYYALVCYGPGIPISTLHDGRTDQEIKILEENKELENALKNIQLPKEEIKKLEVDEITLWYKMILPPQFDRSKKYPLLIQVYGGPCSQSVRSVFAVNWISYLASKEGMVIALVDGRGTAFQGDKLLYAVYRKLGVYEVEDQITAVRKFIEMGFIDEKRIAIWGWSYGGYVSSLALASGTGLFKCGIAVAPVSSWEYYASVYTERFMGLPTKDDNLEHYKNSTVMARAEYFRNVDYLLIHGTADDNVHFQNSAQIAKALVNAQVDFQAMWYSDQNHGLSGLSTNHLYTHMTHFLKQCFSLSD
Procedure: Binding of bispecific or monoclonal antibodies carrying the anti-FAPα arm derived from IgG1-FAPα-FERL (BisG1-FAPα-FERL/DR4-FERR, BisG1-FAPα-FERL/b12-FERR, and IgG1-FAPα-FERL) to cell surface expressed human FAPα was analyzed by flow cytometry using human lung fibroblasts and CAFs, which endogenously express FAPα. BisG1-b12-FERL/b12-FERR was used as negative control.
Human lung fibroblasts and CAFs (50,000 cells/well) were seeded in 96-Well round bottom plates (Greiner Bio-one, Cat #650101). Antibody dilutions were prepared using fluorescence-activated cell sorting (FACS) buffer, consisting of phosphate buffer saline (PBS, Lonza, Cat #BE17-517Q)+1% Bovine Serum Albumin (BSA, Roche, Cat #10735086001)+0.02% Sodium Azide (Bio-World, Cat #41920044-3). Plates were centrifuged, supernatant was removed, cells were resuspended in 50 μL of human Fc Block (BD, Cat #564220, diluted 1:100 in FACS buffer) and 50 μL of viability stain TO-PRO-3 Iodide (Thermo Fisher, Cat #T3605, diluted 1: 25,000 in FACS buffer), and incubated for 15 min at 4° C. Plates were washed three times with FACS buffer. Plates were centrifuged, supernatant was removed, cells were resuspended in 50 μL of antibody dilutions (concentration range 90-0.0005 μg/mL, three-fold dilution steps using FACS buffer) of BisG1-FAPα-FERL/DR4-FERR, BisG1-FAPα-FERL/b12-FERR, BisG1-b12-FERL/b12-FERR (top six concentrations only for CAFs culture) or IgG1-FAPα-FERL (top four concentrations only for CAFs culture) and incubated for 30 min at 4° C. Cells were washed three times with FACS buffer and resuspended in 50 μL of Fluorescein isothiocyanate (FITC)-labeled polyclonal antibody goat anti-mouse IgG1 (Jackson Immuno Research, Cat #109-096-097, diluted 1:100 in FACS buffer). […] Antibody binding to viable cells (TO-PRO-3 negative) was analyzed by flow cytometry on a FACSCelesta™ (BD biosciences) and data were processed using FlowJo_v10.8.1 (FlowJo LLC). Geomean fluorescence intensity, gMFI, was determined and visualized using GraphPad Prism.

[2] = molecular target: T2, human DR4 (Death Receptor 4), cell surface expressed on human tumor cell lines (human, UniProt O00220 24-468); experiment: flow cytometry, HCT-116 cells, n = 1
T2 construct: also called TNFRSF10A; TRAIL-R1
T2 sequence: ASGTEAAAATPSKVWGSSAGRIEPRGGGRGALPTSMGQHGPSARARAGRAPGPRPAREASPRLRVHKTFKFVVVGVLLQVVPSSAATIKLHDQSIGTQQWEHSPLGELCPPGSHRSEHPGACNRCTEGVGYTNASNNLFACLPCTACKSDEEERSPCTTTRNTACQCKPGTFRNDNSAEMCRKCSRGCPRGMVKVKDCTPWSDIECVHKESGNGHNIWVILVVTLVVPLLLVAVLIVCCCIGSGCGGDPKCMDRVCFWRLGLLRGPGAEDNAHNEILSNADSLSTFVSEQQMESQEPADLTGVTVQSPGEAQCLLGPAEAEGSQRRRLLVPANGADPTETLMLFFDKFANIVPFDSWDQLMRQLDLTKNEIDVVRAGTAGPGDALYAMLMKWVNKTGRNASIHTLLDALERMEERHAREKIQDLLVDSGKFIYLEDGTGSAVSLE

[3] = molecular target: T2, human DR4 (Death Receptor 4), cell …; experiment: flow cytometry, HCT-116 cells, average ± SEM
[4] = molecular target: T2, human DR4 (Death Receptor 4), cell …; experiment: flow cytometry, DLD-1 cells, n = 1
[5] = molecular target: T2, human DR4 (Death Receptor 4), cell …; experiment: flow cytometry, MDA-MB-231 cells, average ± SEM
[6] = molecular target: T2, human DR4 (Death Receptor 4), cell …; experiment: flow cytometry, A549 cells, n = 2
[7] = molecular target: T2, human DR4 (Death Receptor 4), cell …; experiment: flow cytometry, HCT-15 cells, n = 2

Row | Binder | EC50 [1] | EC50 [2] | EC50 [3] | EC50 [4] | EC50 [5] | EC50 [6] | EC50 [7] | Max MFI (at 90 µg/mL) [5]
1 | B1 | 0.047 µg/mL | 0.48 µg/mL | 0.52 µg/mL | 0.75 µg/mL | 0.72 µg/mL | 0.93 µg/mL | 0.69 µg/mL | 
2 | B2 |  | 0.51 µg/mL | 0.57 µg/mL | 0.85 µg/mL | 0.67 µg/mL | 0.68 µg/mL | 0.57 µg/mL | 7840 MFI
